Measurements: patent publication US20040018558A1 (published 2004)
Where no end group is shown, it is not given here.

T1: human thrombin receptor (PAR1) (human, UniProt P25116 42-425)
T1 sequence (looked up): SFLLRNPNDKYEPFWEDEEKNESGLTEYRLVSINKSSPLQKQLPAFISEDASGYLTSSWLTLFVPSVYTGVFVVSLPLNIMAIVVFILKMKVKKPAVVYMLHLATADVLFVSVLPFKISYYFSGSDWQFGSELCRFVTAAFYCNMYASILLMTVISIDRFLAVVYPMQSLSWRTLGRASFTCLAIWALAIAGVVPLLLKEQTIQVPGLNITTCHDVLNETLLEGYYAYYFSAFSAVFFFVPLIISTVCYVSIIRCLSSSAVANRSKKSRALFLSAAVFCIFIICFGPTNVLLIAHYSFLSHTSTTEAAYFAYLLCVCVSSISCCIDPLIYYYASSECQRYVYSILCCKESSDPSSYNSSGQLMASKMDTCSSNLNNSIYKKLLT

B1: Gα13 C-terminal minigene peptide (pcDNA-Gα13) (peptide)
peptide: MGLHDNLKQLMLQ
B2: Gα12 C-terminal minigene peptide (pcDNA-Gα12) (peptide)
peptide: MGLQENLKDIMLQ
B3: GαiR control minigene peptide (Gαi1/2 carboxyl terminus in random order) (peptide)
peptide: MGNGIKCLFNDKL
B4: Gαq C-terminal minigene peptide (pcDNA-Gαq) (peptide)
peptide: MGLQLNLKEYNAV
B5: Gαi C-terminal minigene peptide (pcDNA-Gαi) (peptide)
peptide: MGIKNNLKDCGLF
B6: Peptide 8 (LLENLRDCGMF) (peptide)
peptide: LLENLRDCGMF
notes: also called HAP
B7: Clone No. 2 (Table X) IREKWKDLALF (peptide, not shown: small tags and cut ends)
chain: IREKWKDLALF
modifications: also: fused to LacI carrier via linker, letters not given here
B8: Clone No. 7 (Table X) IGEQIEDCGPF (peptide, not shown: small tags and cut ends)
chain: IGEQIEDCGPF
modifications: also: fused to LacI carrier via linker, letters not given here
B9: Clone No. 33/37 (Table X) SLEILKDWGLF (peptide, not shown: small tags and cut ends)
chain: SLEILKDWGLF
modifications: also: fused to LacI carrier via linker, letters not given here
B10: Clone No. 21 (Table X) IRENLKDLGLV (peptide, not shown: small tags and cut ends)
chain: IRENLKDLGLV
modifications: also: fused to LacI carrier via linker, letters not given here
B11: Clone No. 41 (Table X) IRGTLKGWGLF (peptide, not shown: small tags and cut ends)
chain: IRGTLKGWGLF
modifications: also: fused to LacI carrier via linker, letters not given here
B12: Clone No. 17 (Table X) IRNNLKRYGMF (peptide, not shown: small tags and cut ends)
chain: IRNNLKRYGMF
modifications: also: fused to LacI carrier via linker, letters not given here
B13: Clone No. 3 (Table X) VRDNLKNCFLF (peptide, not shown: small tags and cut ends)
chain: VRDNLKNCFLF
modifications: also: fused to LacI carrier via linker, letters not given here
B14: Clone No. 26 (Table X) IRENFKYLGLW (peptide, not shown: small tags and cut ends)
chain: IRENFKYLGLW
modifications: also: fused to LacI carrier via linker, letters not given here
B15: L38 LLDILKDCGLF (peptide, not shown: small tags and cut ends)
chain: LLDILKDCGLF
modifications: also: fused to lysate carrier and linker, not given here
B16: L15 VRDILKDCGLF (peptide, not shown: small tags and cut ends)
chain: VRDILKDCGLF
modifications: also: fused to fusion carrier of the lysate via linker, not given here
B17: L34 ILESLNECGLF (peptide, not shown: small tags and cut ends)
chain: ILESLNECGLF
modifications: also: fused to fusion carrier of the lysate via linker, not given here
B18: L10 IHDRLKDCGLF (peptide, not shown: small tags and cut ends)
chain: IHDRLKDCGLF
modifications: also: fused to fusion carrier of the lysate via linker, not given here
notes: first of two rows labelled L10
B19: L13 ISKNLRDCGLL (peptide, not shown: small tags and cut ends)
chain: ISKNLRDCGLL
modifications: also: fused to fusion carrier of the lysate via linker, not given here
B20: Clone No. 13 (Table IX) IRGSLKDCGLF (peptide, not shown: small tags and cut ends)
chain: IRGSLKDCGLF
modifications: also: fused to LacI carrier via linker, letters not given here
notes: also called L20
B21: L8 IVKNLEDCGLF (peptide, not shown: small tags and cut ends)
chain: IVKNLEDCGLF
modifications: also: fused to lysate carrier and linker, not given here
B22: L14 LRENLKDCGLL (peptide, not shown: small tags and cut ends)
chain: LRENLKDCGLL
modifications: also: fused to fusion carrier of the lysate via linker, not given here
B23: L4 MLDNLKACGLF (peptide, not shown: small tags and cut ends)
chain: MLDNLKACGLF
modifications: also: fused to lysate carrier and linker, not given here
B24: L3 ILENLKDCGLF (peptide, not shown: small tags and cut ends)
chain: ILENLKDCGLF
modifications: also: fused to fusion carrier of the lysate via linker, not given here
B25: L17 ILQNLKDCGLF (peptide, not shown: small tags and cut ends)
chain: ILQNLKDCGLF
modifications: also: fused to fusion carrier of the lysate via linker, not given here
B26: L6 ICENLKDCGLF (peptide, not shown: small tags and cut ends)
chain: ICENLKDCGLF
modifications: cysteine pairing not given here; also: fused to lysate carrier and linker, not given here
B27: Clone No. 3 (Table XVIII) ILENLKDCGLL (peptide, not shown: small tags and cut ends)
chain: ILENLKDCGLL
modifications: also: fused to LacI carrier via linker, letters not given here

Molecular target: T1, human thrombin receptor (PAR1)
Assay: cell-based or functional assay

| decrease in thrombin-mediated HA-MAPK activity against pcDNA [%] | thrombin mediated increase of HA-MAPK activity [fold] | Binder |
| --- | --- | --- |
| 77 | – | B1 |
| 50 | – | B2 |
| – | 4.46 | B3 |
| 57 | – | B4 |
| 59 | – | B5 |

Molecular target: T2, light-activated rhodopsin (bovine rod outer segment membranes) (bovine, UniProt P02699 1-348, retinylidene chromophore bound to Lys-296)
T2 construct: whole, on cells; native receptor in membrane fragments immobilised on wells, not intact cells; also called metarhodopsin II; MII
T2 sequence (P02699 whole entry, the tested form may be a part): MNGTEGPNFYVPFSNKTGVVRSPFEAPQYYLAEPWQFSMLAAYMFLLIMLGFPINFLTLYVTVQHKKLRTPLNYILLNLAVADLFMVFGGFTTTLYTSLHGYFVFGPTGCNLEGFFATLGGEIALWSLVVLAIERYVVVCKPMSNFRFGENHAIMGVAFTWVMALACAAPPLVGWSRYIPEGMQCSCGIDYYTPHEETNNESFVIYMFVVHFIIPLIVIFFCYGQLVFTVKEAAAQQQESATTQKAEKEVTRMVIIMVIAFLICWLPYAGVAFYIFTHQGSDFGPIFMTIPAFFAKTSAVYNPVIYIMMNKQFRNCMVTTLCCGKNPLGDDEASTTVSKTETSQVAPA
Assay: not detailed in the sentence

| fold binding against the native sequence [fold] | Binder |
| --- | --- |
| 1000 | B6 |

Molecular target: T3, dark-adapted rhodopsin (bovine rod outer segment membranes) (bovine, UniProt P02699 1-348, retinylidene chromophore bound to Lys-296)
T3 construct: whole, on cells; also called dark-adapted bovine rhodopsin
T3 sequence (P02699 whole entry): as the sequence (P02699 whole entry, the tested form may be a part) above
Assay: LacI display panning, dark-adapted ROS membranes

| binding result | Binder |
| --- | --- |
| binds | B7 |
| binds | B8 |
| binds | B9 |
| binds | B10 |
| binds | B11 |
| binds | B12 |
| binds | B13 |
| binds | B14 |

Molecular target: T4, rhodopsin (activation state not stated) (bovine, UniProt P02699 1-348)
T4 construct: whole, on cells; same protein as m1; also called EDTA-washed rhodopsin
T4 sequence (P02699 whole entry): as the sequence (P02699 whole entry, the tested form may be a part) above
Assay: ELISA of lysates, OD450 with receptor minus without receptor
Description: The methods of Example 7 repeated using rhodopsin screening with a Gt library. To identify the rank order of binding, the lysates were analyzed using ELISA methods in which the secondary antibody was conjugated to HRP. Following addition of the substrate, the microplate was read using a spectrophotometer. The binding is the OD₄₅₀ for wells with receptor—OD₄₅₀ for wells in which no receptor (control wells with empty lipid vesicles).

| ELISA [OD450] | Binder |
| --- | --- |
| 0.823 | B15 |
| 0.621 | B16 |
| 0.603 | B17 |
| 0.506 | B18 |
| 0.187 | B19 |
| 0.423 | B20 |
| 0.257 | B21 |
| 0.833 | B22 |
| 0.908 | B23 |
| 0.839 | B24 |
| 0.6 | B25 |
| 0.342 | B26 |

Molecular target: T2, light-activated rhodopsin (bovine rod …)
Assay: LacI display panning, light-activated ROS membranes, peptide 8 added in rounds 3 and 4
Description: The panning process is illustrated in FIG. 1. For screening of the library by “panning,” rhodopsin receptors prepared according to Example 5 were immobilized directly on Immulon 4 (Dynatech) microtiter wells (0.1-1 μg of protein per well) in cold 35 mM HEPES, pH 7.5, containing 0.1 mM EDTA, 50 mM KCl and 1 mM dithiothreitol (HEK/DTT). After shaking for one hour at 4° C., unbound membrane fragments were washed away with HEK/DTT. The wells were blocked with 100 μl 2% BSA in HEKL (35 mM HEPES; 0.1 mM EDTA; 50 mM KCl; 0.2 M α-lactose; pH 7.5, with 1 mM DTT). For rounds 1 and 2, BSA was used for blocking; in later rounds 1% nonfat dry milk was used. For the first round of panning, about 24 wells of a 96-well plate were used. In subsequent rounds, 8 wells with receptor and 8 wells without receptor were prepared.
To identify peptides having even higher affinity to light-activated rhodopsin than those identified by the panning procedure described in Example 7, a high affinity peptide was included in the library incubations in rounds three and four. […] Screening of the Gαt library was performed as in Example 7, except that 10 μL 100 μM ([…]) peptide 8 was included in the wells in rounds three and four. […] Residues L344, C347 and G348 remained stable whether peptide 8 was included in the screen or not.

| binding result | Binder |
| --- | --- |
| binds | B27 |
